According to patent US20150044226A1 (SBI BIOTECH, published 2015):

T1: cynomolgus monkey PLD4 (cynomolgus monkey, UniProt Q96BZ4 1-506 (human entry))
T1 construct: also called cynomolgus monkey PLD4 protein; cyno PLD4
T1 chain: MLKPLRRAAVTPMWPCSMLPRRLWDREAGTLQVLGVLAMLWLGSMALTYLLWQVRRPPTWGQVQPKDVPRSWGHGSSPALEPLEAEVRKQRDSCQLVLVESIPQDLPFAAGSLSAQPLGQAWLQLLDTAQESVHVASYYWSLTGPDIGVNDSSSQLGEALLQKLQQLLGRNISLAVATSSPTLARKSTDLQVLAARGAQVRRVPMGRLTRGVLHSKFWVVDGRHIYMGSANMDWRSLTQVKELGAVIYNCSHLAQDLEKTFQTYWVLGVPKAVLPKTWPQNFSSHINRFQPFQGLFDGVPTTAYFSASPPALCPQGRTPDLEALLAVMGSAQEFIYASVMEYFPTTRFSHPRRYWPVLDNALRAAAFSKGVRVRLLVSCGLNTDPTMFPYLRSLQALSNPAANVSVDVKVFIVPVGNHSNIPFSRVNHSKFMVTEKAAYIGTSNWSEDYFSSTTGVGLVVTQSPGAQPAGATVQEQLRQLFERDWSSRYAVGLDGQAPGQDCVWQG

T2: human PLD4 (phospholipase D4) protein (UniProt Q96BZ4 1-506)
T2 chain: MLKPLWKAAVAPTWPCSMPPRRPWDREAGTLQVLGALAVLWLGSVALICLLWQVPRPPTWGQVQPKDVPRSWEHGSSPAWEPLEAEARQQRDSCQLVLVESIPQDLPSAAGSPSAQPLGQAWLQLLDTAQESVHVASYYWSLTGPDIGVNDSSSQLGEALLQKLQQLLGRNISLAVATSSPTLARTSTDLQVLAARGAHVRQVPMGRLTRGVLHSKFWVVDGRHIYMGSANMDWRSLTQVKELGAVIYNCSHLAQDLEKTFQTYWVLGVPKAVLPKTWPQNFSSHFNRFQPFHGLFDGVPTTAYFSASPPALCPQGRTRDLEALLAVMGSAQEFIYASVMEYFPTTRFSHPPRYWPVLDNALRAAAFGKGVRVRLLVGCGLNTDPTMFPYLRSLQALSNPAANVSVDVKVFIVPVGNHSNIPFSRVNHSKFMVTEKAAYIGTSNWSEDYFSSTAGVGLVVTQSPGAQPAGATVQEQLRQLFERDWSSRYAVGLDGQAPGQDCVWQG

T3: rhesus monkey PLD4 (rhesus monkey, UniProt Q96BZ4 1-506 (human entry))
T3 construct: also called rhesus monkey PLD4 protein
T3 chain: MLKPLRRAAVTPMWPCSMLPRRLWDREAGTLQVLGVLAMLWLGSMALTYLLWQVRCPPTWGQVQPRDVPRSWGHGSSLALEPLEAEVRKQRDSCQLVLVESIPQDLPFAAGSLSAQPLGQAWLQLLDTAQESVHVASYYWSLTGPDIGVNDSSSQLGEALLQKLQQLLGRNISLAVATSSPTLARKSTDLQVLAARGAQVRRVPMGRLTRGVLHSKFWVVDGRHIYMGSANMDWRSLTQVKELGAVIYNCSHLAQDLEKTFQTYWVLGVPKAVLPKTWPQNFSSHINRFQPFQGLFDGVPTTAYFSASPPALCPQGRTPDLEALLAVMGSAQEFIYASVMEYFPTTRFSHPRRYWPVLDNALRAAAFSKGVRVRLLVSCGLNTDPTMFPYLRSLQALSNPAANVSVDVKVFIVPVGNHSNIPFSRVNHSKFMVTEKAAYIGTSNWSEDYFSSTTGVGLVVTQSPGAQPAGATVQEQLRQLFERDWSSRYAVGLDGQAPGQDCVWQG

T4: human PLD4 (phospholipase D4) protein (human, UniProt Q96BZ4 1-506)
T4 construct: Type II transmembrane protein, 506 a.a; also called hPLD4; HuPLD4
T4 sequence: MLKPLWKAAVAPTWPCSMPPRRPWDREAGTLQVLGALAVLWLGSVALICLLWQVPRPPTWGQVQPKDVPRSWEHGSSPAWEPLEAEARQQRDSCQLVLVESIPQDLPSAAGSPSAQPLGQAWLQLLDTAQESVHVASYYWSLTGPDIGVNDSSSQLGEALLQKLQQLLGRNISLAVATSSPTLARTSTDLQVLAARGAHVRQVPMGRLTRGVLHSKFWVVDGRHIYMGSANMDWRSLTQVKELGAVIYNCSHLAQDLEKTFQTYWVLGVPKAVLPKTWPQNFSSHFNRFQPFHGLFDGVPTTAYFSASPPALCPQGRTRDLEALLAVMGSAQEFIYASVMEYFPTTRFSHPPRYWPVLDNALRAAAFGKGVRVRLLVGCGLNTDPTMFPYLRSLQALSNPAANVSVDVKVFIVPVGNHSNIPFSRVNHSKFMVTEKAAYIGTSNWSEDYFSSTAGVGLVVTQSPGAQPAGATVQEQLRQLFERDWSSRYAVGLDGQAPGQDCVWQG

B1: anti-PLD4 mouse 8C11 antibody (antibody, mouse IgG2b, V domains shown)
VH: QVQLQQSGAELVKPGASVKLSCKASGYTFTSYYLYWVRQRPGQGLEWIGLINPTNSDTIFNEKFKSKATLTVDKSSSTAYMQLSSLTSEDSAVYYCTREGGYGYGPFAYWGQGTLVTVSA
VL: DVVMTQTPLSLPVSLGDQASISCTSSQTLVHSNGNTYLHWYLQKPGQSPKLLIYKVSNRFSGVPDRFSGSGSGTDFTLKISRVEAEDLGVYFCSHSTHVPFTFGSGTKLEIKR
notes: Tested as hybridoma culture supernatant and as purified antibody
B2: anti-PLD4 mouse 10C3 antibody (antibody, mouse IgG2a, V domains shown)
VH: EVQLVESGGDLVRPGGSLKLSCAASGFSFSSYGMSWFRQTPDKRLEWVATISSGGSYIYYPESVKGRFTISRDNARNILYLQMSSLKSEDTAMYYCVRLYGGRRGYGLDYWGQGTSVTVSS
VL: EIVMTQAAFSNPVTLGTSASISCRSSKSLLHSDGITYLYWYLQKPGQSPQLLIYQMSNLASGVPDRFSSSGSGTDFTLRISRVEAEDVGVYYCAQNLELYTFGGGTKLEIKR
notes: as for B1
B3: anti-PLD4 mouse 11D10 antibody (antibody, mouse IgG2b, V domains shown)
VH: EVQLVESGGDLVRPGGSLKLSCAASGFSFSSYGMSWFRQTPDKRLEWVATISSGGSYIYYPESVKGRFTISRDNARNILYLQMSSLKSEDTAMYYCVRLYGGRRGYGLDYWGQGTSVTVSS
VL: EIVMTQAAFSNPVTLGTSASISCRSSKSLLHSDGITYLYWYLQKPGQSPQLLIYQMSNLASGVPDRFSSSGSGTDFTLRISRVEAEDVGVYYCAQNLELYTFGGGTKLEIKR
notes: as for B1

Experiments:
cynomolgus monkey PLD4 [1] = molecular target: T1, cynomolgus monkey PLD4; assay: FACS, hybridoma culture supernatant on cynomolgus monkey PLD4-CT125 cells; non-binding implied (8C11 is not among the seven)
[2] = molecular target: T2, human PLD4 (phospholipase D4) protein; assay: binding to human PLD4-CT125 stable cells; apparent Kd
rhesus monkey PLD4 [3] = molecular target: T3, rhesus monkey PLD4; assay: FACS, hybridoma culture supernatant on rhesus monkey PLD4-293T transient transfectants; non-binding implied (8C11 is not among the seven)
[4] = molecular target: T4, human PLD4 (phospholipase D4) protein; assay: FACS titration (0.001 to 30 µg/mL) of purified antibody on human PLD4-CT125 cells, positive cell frequency fitted with GraphPad Prism (FIG. 19)
Experimental: For binding ability of the purified antibody, human PLD4-CT125 expression stable cell strain was reacted to nearly 100% of the positive staining rate at low concentration to high concentration (0.001 μg/mL to 30 μg/mL) of purified PLD4 antibody concentration. The frequency of staining positive cell and the antibody were data-analyzed using Graph Pad Prism version 5 software, and the dissociation constant molar concentration (Kd value) was computed in nM unit.

rhesus monkey PLD4 [5] = molecular target: T3, rhesus monkey PLD4; assay: FACS, hybridoma culture supernatant on rhesus monkey PLD4-293T transient transfectants; non-binding implied (10C3 is not among the seven)
cynomolgus monkey PLD4 [6] = molecular target: T1, cynomolgus monkey PLD4; assay: FACS, hybridoma culture supernatant on cynomolgus monkey PLD4-CT125 cells; non-binding implied (10C3 is not among the seven)
cynomolgus monkey PLD4 [7] = molecular target: T1, cynomolgus monkey PLD4; assay: FACS, hybridoma culture supernatant on cynomolgus monkey PLD4-CT125 cells; non-binding implied (11D10 is not among the seven)
rhesus monkey PLD4 [8] = molecular target: T3, rhesus monkey PLD4; assay: FACS, hybridoma culture supernatant on rhesus monkey PLD4-293T transient transfectants; non-binding implied (11D10 is not among the seven)

Binder | binding result (cynomolgus monkey PLD4 [1]) | Kd [2] [pM] | binding result (rhesus monkey PLD4 [3]) | Kd [4] [pM] | binding result (rhesus monkey PLD4 [5]) | binding result (cynomolgus monkey PLD4 [6]) | binding result (cynomolgus monkey PLD4 [7]) | binding result (rhesus monkey PLD4 [8])
B1 | no binding | 85 | no binding | ≤ 1000 | – | – | – | –
B2 | – | 228 | – | ≤ 1000 | no binding | no binding | – | –
B3 | – | 192 | – | ≤ 1000 | – | – | no binding | no binding
